Experimental data published in patent US20260265385A1, “CD122 BINDING AGENTS AND METHOD OF USING SAME” (AnaptysBio, Inc., priority 2022, published 2026).
Positions count from the first letter of the chain named.

T1: Human IL-2Rβ (Homo sapiens, UniProt P14784)
T1 construct: corresponding to residues Ala1-Thr215 of the extracellular domains excluding the signal peptide
T1 sequence (P14784 26-240 limits assumed): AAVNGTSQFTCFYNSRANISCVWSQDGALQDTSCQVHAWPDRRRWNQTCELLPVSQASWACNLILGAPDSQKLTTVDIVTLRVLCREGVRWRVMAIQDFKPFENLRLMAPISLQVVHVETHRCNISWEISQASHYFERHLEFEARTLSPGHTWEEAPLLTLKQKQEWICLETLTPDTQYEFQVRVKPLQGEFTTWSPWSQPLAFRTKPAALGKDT

T2: Cynomolgus IL-2Rβ (Macaca fascicularis, UniProt Q38J85)
T2 construct: corresponding to residues Ala1-Thr215 of the extracellular domains excluding the signal peptide
T2 sequence (Q38J85 26-240 limits assumed): T1 sequence (P14784 26-240 limits assumed) with Q8R, A67T, T75A, L84M, V93M, E128K, L159M

T3: IL-2RB (Homo sapiens, UniProt P14784)
T3 sequence (P14784 27-551): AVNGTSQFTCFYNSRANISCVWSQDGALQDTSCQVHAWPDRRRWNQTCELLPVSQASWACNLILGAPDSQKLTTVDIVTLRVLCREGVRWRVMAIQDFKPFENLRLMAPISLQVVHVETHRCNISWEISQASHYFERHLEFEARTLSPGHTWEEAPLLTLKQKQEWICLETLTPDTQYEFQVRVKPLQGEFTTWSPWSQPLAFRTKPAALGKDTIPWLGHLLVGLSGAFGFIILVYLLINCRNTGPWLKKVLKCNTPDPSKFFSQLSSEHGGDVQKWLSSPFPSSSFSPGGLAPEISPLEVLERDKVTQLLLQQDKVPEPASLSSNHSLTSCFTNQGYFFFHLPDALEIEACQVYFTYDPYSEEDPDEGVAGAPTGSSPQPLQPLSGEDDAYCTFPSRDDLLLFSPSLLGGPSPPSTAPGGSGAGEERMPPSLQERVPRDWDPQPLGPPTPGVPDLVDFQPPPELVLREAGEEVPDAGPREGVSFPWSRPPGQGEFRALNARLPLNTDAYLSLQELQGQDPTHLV

B1: APE15428: M6-p1625 series anti-CD122 antibody, VH SEQ ID NO: 69, VL SEQ ID NO: 77 (antibody, V domains shown)
VH: QVQLVQSGAEVKKPGASVKVSCKASGYTFTRFWIQWVRQAPGQGLEWMGEILPGSGSINHNEKFQGRVTMTRDTSTSTVYMELSSLRSEDTAVYYCTRHYGSFDYWGQGTTVTVSS
VL: DIQMTQSPSSLSASVGDRVTITCKASQNVGTDVAWYQQKPGKAPKSLIYSASYRYSGVPSRFSGSGSGTDFTLTISSLQPEDFATYFCHQYESYPFTFGQGTKLEIKR
modifications: IgG1 LALA Fc format
B2: APE15295: M6-p1625 series anti-CD122 antibody, VH SEQ ID NO: 68, VL SEQ ID NO: 77 (antibody, V domains shown)
VH: B1 VH
VL: B1 VL
modifications: IgG4P format
B3: M6-1625: anti-CD122 IgG4 antibody of the M6-p1625 class tested in Example 4; APE number not stated (antibody, V domains shown)
VH: QVQLQQSGAELMKPGASVKISCKSTGYTFSRYWIEWVKQRPGHGLEWIGEILPGSGSINHNEKFQGKATFTADTSSNTVYMQLSSLTSEDSAVYFCTRHYGSFDYWGQGTTLTVSS
VL: EIVMTQSPKFMSTSVGDRVSVTCKASQNVGTDVAWYQQKPGQSPKALIYSASYRYNGVPDRFTGSGSGTDFTLTISNVQSEDLAEYFCHQYSSYPFTFGSGTKLEIKR
B4: APE12383: M6-p1625 series anti-CD122 antibody (chimeric in Table 3), VH SEQ ID NO: 37, VL SEQ ID NO: 70 (antibody, V domains shown)
VH: B3 VH
VL: B3 VL
B5: APE15170: M10-1275 series anti-CD122 antibody, VH SEQ ID NO: 23, VL SEQ ID NO: 35 (antibody, V domains shown)
VH: EVQLVQSGAEVKKPGATVKISCKVSGFNFKESLIHWVQQAPGKGLEWMGWIDNEAGETEYAPGFQDRVTITADTSTDTAYMELSSLRSEDTAVYYCARGGPWFLSYWGQGTTVTVSS
VL: EIVMTQSPATLSVSPGERATLSCRASQIISNNLHWYQQKPGQAPRLLIIYGLQSISGIPARFSGSRSGTEFTLTISSLQSEDFAVYFCQQSNNFPWTFGQGTKLEIKR
modifications: IgG4P format
B6: APE15446: M10-1275 series anti-CD122 antibody, VH SEQ ID NO: 24, VL SEQ ID NO: 35 (antibody, V domains shown)
VH: B5 VH
VL: B5 VL
B7: M10-1275: anti-CD122 IgG4 antibody of the M10-1275 class tested in Example 4; APE number not stated (antibody, V domains shown)
VH: DVQLQQSGAELARPGASVKLSCTVSGFNFKDSLMHWVTQGPERGLRWIGWIDSENGETEYAPGFQDKATITADTSSSTVYLHLSSLTSEDTAIYYCARGGPWFLSYWGPGTTLTVSS
VL: DIVLTQTPATLSVTPGDSVSLSCRASQIISNNLHWYQQKSHESPRLLIIYGLQSISGIPYRFSGRRSGTDFTLNINSVEIEDFGMYFCQQSNNWPWTFGGGTKLDIRR
B8: APE12705: M10-1275 series anti-CD122 antibody (chimeric in Table 3), VH SEQ ID NO: 1, VL SEQ ID NO: 25 (antibody, V domains shown)
VH: B7 VH
VL: B7 VL

What was measured:
[1] = biological target: T1, Human IL-2Rβ; experiment: SPR binding affinity to recombinant human IL-2Rβ (Biacore); details: 1:1 binding model
Description: (§1) Surface plasmon resonance (SPR) was used to determine the binding affinities. The M6-1625 and M10-1275 antibodies were captured onto a Cytiva Protein A Chip for 60 seconds at 0.5 μg/mL for 60 seconds. The antibodies were exposed to recombinant human LL-2Rβ or cynomolgus LL-2Rβ (corresponding to residues Ala1-Thr215 of the extracellular domains excluding the signal peptide) at typical concentrations ranging from 0.4 nM to 11 nM with typical 300 second associations and 1200 second dissociations using a BiacoreS200 instrument. Sensorgrams were fit globally using a 1:1 binding model in the Biacore T200 Evaluation Software to calculate on- and off-rates and KD values.

[2] = biological target: T2, Cynomolgus IL-2Rβ; experiment: SPR binding affinity to recombinant cynomolgus IL-2Rβ (Biacore); details: 1:1 binding model
Description: as §1

[3] = system: xenogeneic NSG(huIL-15Tg)/Hu-PBMC Graft vs. Host Disease (GvHD) model; experiment: Xenogeneic NSG(huIL-15Tg)/Hu-PBMC GvHD model, Example 14; assay type: in vivo, mice; details: 10 mg/kg, 3 mg/kg, or 1 mg/kg intraperitoneally twice weekly for 4 weeks; FIG. 14
Description: A xenogeneic NSG(huIL-15Tg)/Hu-PBMC GvHD model testing the efficacy of the anti-CD122 antibody disclosed herein was performed at The Jackson laboratory JAX® In Vivo Pharmacology Services (Sacramento, CA). NOD-scidIL2rγ^null (NSG) human IL-15 transgenic mice were irradiated with 1 Gy followed by intravenous injection of human PBMCs in each mouse. APE15428 (IgG1-LALA) was dosed intraperitoneally at 10 mg/kg, 3 mg/kg, or 1 mg/kg twice weekly for 4 weeks starting the day following PBMC injection. Disease was monitored three times weekly by body weight loss, death, and GvHD scores measuring: weight loss, activity, fur texture, paleness, and posture.

[4] = system: PHA-stimulated primary human T cell blasts; experiment: IL-2- or IL-15-induced proliferation of PHA-stimulated T cell blasts (CTG); assay type: cell-based; details: IL-2 (15 pM) or IL-15 (150 pM) induced proliferation, IgG4 antibodies, compared with upadacitinib, FIG. 4
Description: Primary human PBMCs were isolated from whole blood donors, and stimulated in cuture for 3 days with 5 μg/mL PHA in a T75 flask. Cells were washed, counted, and plated at 100,000 cells/well in a 96-well plate. Antibodies were titrated at the concentrations indicated in FIG. 4, starting at 100 nM with 1:3 dilutions, and added to the cells. Recombinant IL-2 (15 pM) or IL-15 (150 pM) were added to the cells. Cells were cultured for an additional three days. SteadyGlo substrate was added for 10 minutes and the plates were read on the GloMax machine. Data were analyzed using Graphpad Prism software.

[5] = biological target: T3, IL-2RB; experiment: Ability to block IL-2 (SPR assay); assay type: binding; details: chimeric antibodies

Molecule	Kd [1] [nM]	Kd [2] [nM]	other results
B1	0.0567	0.0765	median time to survival vs. isotype control [3]: statistically significant efficacy
B2	0.0557	0.0707	
B3			blocking IL-2 and IL-15 [4]: better than upadacitinib
B4			Blocking (IL-2 down) [5]: Blocker
B5	0.0128	0.00487	
B6	0.0107	0.00415	
B7			blocking IL-2 and IL-15 [4]: better than upadacitinib
B8			Blocking (IL-2 down) [5]: Partial
